Target: T1, glutathione S-transferase (GST)-tagged Kid recombinant protein (human, UniProt Q14807 1-665)
T1 construct: cDNA amplified from a cDNA library extracted from HEK 293T cells, inserted into pGEX-4T-1; Vector pGEX-4T-1; The discussion calls the Kid of the gliding assay (Kid-GFP-His, another construct) full-length; nothing is said of the limits of GST-Kid; also called GST-Kid; source: E. coli BL21 (DE3) pLysS, purified (glutathione-Sepharose 4B)
T1 sequence (looked up): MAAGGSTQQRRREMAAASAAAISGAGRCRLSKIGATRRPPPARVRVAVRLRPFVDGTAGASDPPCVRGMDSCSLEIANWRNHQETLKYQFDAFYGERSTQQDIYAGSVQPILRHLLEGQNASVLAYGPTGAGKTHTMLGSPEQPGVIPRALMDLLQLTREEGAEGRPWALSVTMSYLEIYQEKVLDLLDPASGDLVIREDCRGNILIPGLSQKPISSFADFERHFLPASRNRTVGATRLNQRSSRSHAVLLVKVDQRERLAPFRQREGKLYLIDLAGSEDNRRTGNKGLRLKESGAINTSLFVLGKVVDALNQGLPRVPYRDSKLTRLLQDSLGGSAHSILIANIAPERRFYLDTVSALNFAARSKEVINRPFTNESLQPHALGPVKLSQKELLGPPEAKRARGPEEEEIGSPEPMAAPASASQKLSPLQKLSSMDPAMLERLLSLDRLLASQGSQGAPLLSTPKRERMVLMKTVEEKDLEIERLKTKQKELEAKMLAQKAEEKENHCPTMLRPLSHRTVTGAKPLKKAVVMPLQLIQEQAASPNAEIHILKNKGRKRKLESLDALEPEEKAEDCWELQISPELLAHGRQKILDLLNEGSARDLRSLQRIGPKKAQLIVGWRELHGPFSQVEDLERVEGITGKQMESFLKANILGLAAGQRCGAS
Experiment: pull-down; GST or GST-Kid (2 μg) on glutathione beads with 2 μg purified His-NuSAP; 50 mM Tris-HCl pH 7.0, 150 mM NaCl, 1 mM EGTA, 0.5% Triton X-100; 3 h at 4 °C; NuSAP blotted with anti-NuSAP antibody
Conditions: both partners purified

B1: His-tagged NuSAP recombinant protein (natural protein, human (cDNA library from HEK 293T cells), UniProt Q9BXS6 1-441, looked up)
chain: MIIPSLEELDSLKYSDLQNLAKSLGLRANLRATKLLKALKGYIKHEARKGNENQDESQTSASSCDETEIQISNQEEAERQPLGHVTKTRRRCKTVRVDPDSQQNHSEIKISNPTEFQNHEKQESQDLRATAKVPSPPDEHQEAENAVSSGNRDSKVPSEGKKSLYTDESSKPGKNKRTAITTPNFKKLHEAHFKEMESIDQYIERKKKHFEEHNSMNELKQQPINKGGVRTPVPPRGRLSVASTPISQRRSQGRSCGPASQSTLGLKGSLKRSAISAAKTGVRFSAATKDNEHKRSLTKTPARKSAHVTVSGGTPKGEAVLGTHKLKTITGNSAAVITPFKLTTEATQTPVSNKKPVFDLKASLSRPLNYEPHKGKLKPWGQSKENNYLNQHVNRINFYKKTYKQPHLQTKEEQRKKREQERKEKKAKVLGMRRGLILAED
notes: NuSAP; cDNA amplified from a cDNA library extracted from HEK 293T cells, inserted into pET28b; Vector pET28b; also called His-NuSAP; source: E. coli BL21 (DE3) pLysS, purified (Ni-NTA agarose)
  binding result: binds

Reference: paper PMC4742958, “NuSAP governs chromosome oscillation by facilitating the Kid-generated polar ejection force” (Nature Communications, 2016)
